# According to US20120028811, “DEVICE FOR RAPID IDENTIFICATION OF NUCLEIC ACIDS FOR BINDING TO SPECIFIC CHEMICAL TARGETS” (DONGGUK UNIVERSITY, published 2012):
# B1: TATA DNA (dsDNA)
# DNA 1: GGGAATTCGGGCTATAAAAGGGGGATCCGG
# DNA 2: CCGGATCCCCCTTTTATAGCCCGAATTCCC
# Molecular target: T1, TATA-binding protein (TBP) (UniProt P13393 P13393:1-240)
# T1 sequence: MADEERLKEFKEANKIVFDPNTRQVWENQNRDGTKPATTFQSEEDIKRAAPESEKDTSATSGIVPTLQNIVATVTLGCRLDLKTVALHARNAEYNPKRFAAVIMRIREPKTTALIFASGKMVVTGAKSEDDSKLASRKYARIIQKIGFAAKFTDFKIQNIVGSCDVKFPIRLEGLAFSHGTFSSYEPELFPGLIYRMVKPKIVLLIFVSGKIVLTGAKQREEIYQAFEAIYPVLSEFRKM
# Assay: fluorescence microscopy of TBP in sol-gel; binding buffer 25 mM Tris pH 8, 100 mM NaCl, 25 mM KCl, 10 mM MgCl2
# Conditions: tags: His-tag, full length, expressed in E. coli BL21-DE3; label: 5'-Cy3 on top strand
# Procedure: Sol-gels with TBP were enclosed with the PDMS lid. After encapsulation, the channels were washed extensively with the PBS buffer (binding buffer) by connecting one end of the main channel to a syringe pump (Pump 11, Harvard Apparatus, Holliston, Mass.). Following the pre-washing step, the silicate gel spot was blocked for 1 hour with 1× binding buffer that contained 25 mM Tris-Cl (pH 8), 100 mM NaCl, 25 mM KCl and 10 mM MgCl₂ with 5% skim milk. The blocking buffer works as a nonspecific competitor in the reaction mixture, which helps to achieve the selection of high-affinity molecules. […] After binding, the interaction of immobilized TBP proteins and Cy-3 labeled TATA DNA was monitored by fluorescence microscopy.
# The Cy-3-labeled TATA DNA has a high affinity for TBP similar to that of the conventionally selected aptamers. […] The measured melting point of TATA DNA was 72° C. […] The fluorescence intensity of the sol-gel except for the negative sol-gel was detected under the fluorescent microscope (FIG. 6).
binder,measurement,value
B1,binding result,binds
